We go through one molecule from article PMC2553836, “Control of Jasmonate Biosynthesis and Senescence by miR319 Targets”.

For this series, the target named is T1, TCP4 N-terminal fragment (pRSETC-TCP4-1, TCP4-N224) (Arabidopsis thaliana, UniProt Q8LPR5 1-224).
T1 sequence: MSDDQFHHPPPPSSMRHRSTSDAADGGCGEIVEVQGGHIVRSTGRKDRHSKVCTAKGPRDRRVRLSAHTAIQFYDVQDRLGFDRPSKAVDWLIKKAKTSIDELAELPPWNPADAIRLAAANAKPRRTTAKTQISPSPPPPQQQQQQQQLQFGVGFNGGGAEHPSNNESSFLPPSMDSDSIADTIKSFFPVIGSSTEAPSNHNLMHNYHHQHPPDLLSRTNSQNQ
Briefly: EMSA; 20 mM HEPES-KOH pH 7.8, 100 mM KCl, 1 mM EDTA, 0.1% BSA, 10 ng herring sperm DNA, 10% glycerol, ~10 fmol probe, 5-100 ng protein in 10 ul, 30 min room temperature; 6% native gel, 0.5x TBE. Conditions: protein: recombinant; tags: His; chain copies: 2; label: 32P-dCTP (Klenow) as probe. Background: A gel shift assay detects complexes by their altered migration in electrophoresis.

B1: TCP4 consensus wild type (dsDNA)
DNA 1: AGATGGGGGACCACATAGATGT
DNA 2: ACATCTATGTGGTCCCCCATCT
In the case of B1, the binding result is given as “binds”.
